Biological target: T1, mouse TNFR2-Fc fusion protein (mouse, UniProt P25119 23-258)
T1 construct: mouse TNF receptor 2 (TNFR2)
T1 sequence (looked up): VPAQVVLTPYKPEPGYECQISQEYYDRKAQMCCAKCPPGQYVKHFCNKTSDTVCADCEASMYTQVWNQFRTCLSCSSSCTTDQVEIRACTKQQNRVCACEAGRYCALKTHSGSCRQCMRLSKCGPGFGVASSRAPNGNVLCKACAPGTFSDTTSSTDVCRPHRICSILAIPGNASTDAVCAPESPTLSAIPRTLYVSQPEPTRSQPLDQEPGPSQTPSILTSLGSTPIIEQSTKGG
Test: ELISA; TNFR1-Fc or TNFR2-Fc coated at 1 µg/ml in PBS, 4 °C overnight; TNF muteins in 2% skim milk powder in PBS, 1 h RT; detected with anti-TNF clone F6C5 and HRP anti-mouse IgG
Conditions: both partners purified

EC50: 0.045 nM
B1: GCN4-sc-mTNFR2 (ligand)
chain: not shown
